Laboratory results published in US20050043228A1.

Experiments:
[1] = target: protamine (from protamine sulfate); assay: Val^8-GLP-1 in the supernatant versus total, after mixing with protamine, 25 C, 24 h
[2] = target: poly-L-arginine; assay: Val^8-GLP-1 in the supernatant versus total, after mixing with poly-L-arginine, 25 C, 24 h
[3] = target: protamine (from protamine sulfate); assay: share of Val^8-GLP-1 in particles (supernatant versus total); 2.0 mg Val^8-GLP-1 + 0.22 mg protamine, ratio 9.1
[4] = target: protamine (from protamine sulfate); assay: share of Val^8-GLP-1 in particles (supernatant versus total); 2.0 mg Val^8-GLP-1 + 0.27 mg protamine, ratio 7.4
[5] = target: protamine (from protamine sulfate); assay: share of Val^8-GLP-1 in particles (supernatant versus total); 2.0 mg Val^8-GLP-1 + 0.33 mg protamine, ratio 6.1
[6] = target: protamine (from protamine sulfate); assay: share of Val^8-GLP-1 in particles (supernatant versus total); 2.0 mg Val^8-GLP-1 + 0.38 mg protamine, ratio 5.3
[7] = target: protamine (from protamine sulfate); assay: share of Val^8-GLP-1 in particles (supernatant versus total); 2.0 mg Val^8-GLP-1 + 0.44 mg protamine, ratio 4.5
[8] = target: protamine (from protamine sulfate); assay: share of Val^8-GLP-1 in particles (supernatant versus total); 2.0 mg Val^8-GLP-1 + 0.49 mg protamine, ratio 4.1
[9] = target: protamine (from protamine sulfate); assay: share of Val^8-GLP-1 in particles (supernatant versus total); 2.0 mg Val^8-GLP-1 + 0.55 mg protamine, ratio 3.6
[10] = target: protamine (from protamine sulfate); assay: share of Val^8-GLP-1 in particles (supernatant versus total); 2.0 mg Val^8-GLP-1 + 0.16 mg protamine, ratio 12.5

yield (share of Val^8-GLP-1 in the particles) [1]: 90 to 95%
yield (share of Val^8-GLP-1 in the particles) [2]: 90%
Yield % [3]: 73.2%
Yield % [4]: 84.3%
Yield % [5]: 94.5%
Yield % [6]: 98.3%
Yield % [7]: 99.5%
Yield % [8]: 99.7%
Yield % [9]: 99.4%
Yield % [10]: 54.6%
Binder: HVEGTFTSDVSSYLEGQAAKEFIAWLVKGRG [Val^8-GLP-1(7-37)OH]
